According to publication PMC5455435, “Fibrin Hydrogel Based Bone Substitute Tethered with BMP-2 and BMP-2/7 Heterodimers” (Materials, 2015):

Key:
[1] = target: the molecule itself; assay: SEC; purified monomers refolded at 4 °C in 50 mM Tris pH 8.5, 1 M NaCl, 5 mM EDTA, 2% CHAPS, 2 mM reduced and 1 mM oxidized glutathione; after reverse phase chromatography the dimer was isolated on a HiLoad Superdex 75 column
BMP-7 = target: T1, BMP-7 (human, UniProt P18075 293-431); assay: non-reduced Western blot with two-colour infrared detection; TG-BMP-2 and BMP-7 monomers combined in equimolar amounts and refolded together, heterodimer purified by heparin affinity, size exclusion and reverse phase chromatography; non-reduced blot probed with anti-BMP-2/4 (700 nm) and anti-BMP-7 (800 nm); overlapping bands indicate the heterodimer; conditions: both partners purified
T1 construct: Non-glycosylated (made in E. coli); also called BMP-7 monomer; BMP-7 chain of TG-BMP-2/BMP-7
T1 sequence (looked up): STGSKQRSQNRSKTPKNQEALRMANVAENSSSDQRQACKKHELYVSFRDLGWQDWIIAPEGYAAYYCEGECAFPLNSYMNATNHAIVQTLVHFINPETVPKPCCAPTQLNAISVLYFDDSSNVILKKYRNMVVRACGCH

B1: BMP-2 (ligand, human, UniProt P12643 283-396, looked up)
chain: QAKHKQRKRLKSSCKRHPLYVDFSDVGWNDWIVAPPGYHAFYCHGECPFPLADHLNSTNHAIVQTLVNSVNSKIPKACCVPTELSAISMLYLDENEKVVLKNYQDMVVEGCGCR
notes: bone morphogenetic protein 2 (BMP-2), human, active BMP-2 protein only; also called BMP-2 homodimer; regular BMP-2 without the TG site
binding result [1]: binds

B2: TG-BMP-2 (ligand, human)
chain: MNQEQVSPLPVELPLIKMKPHQAKHKQRKRLKSSCKRHPLYVDFSDVGWNDWIVAPPGYHAFYCHGECPFPLADHLNSTNHAIVQTLVNSVNSKIPKACCVPTELSAISMLYLDENEKVVLKNYQDMVVEGCGCR
notes: One chain is written; also called engineered BMP-2; TG-BMP-2 monomer
binding result [1]: binds
binding result (BMP-7): binds
